Test [1] addresses C-terminal 6xHis tagged IL-18Rβ extracellular domains (residues 15-356), for SPR (human) (UniProt O95256). Description: SPR; BIAcore 3000, 25 °C, C-terminal 6xHis IL-18Rβ immobilised (~100 RU) on an NTA sensor chip, un-tagged IL-18Rα saturated with 500 nM IL-18 as analyte in HBS-P. On the technique in general: Surface plasmon resonance follows binding to a sensor surface in real time, without labels.

Test [2] addresses T1, IL-18 receptor β extracellular domains (residues 15-356), construct for crystallography (human, UniProt O95256-1 15-356).
T1 construct: human IL-18 receptor β, extracellular domains, residues 15-356 of NM_003853; also called IL-18Rβ; source: Sf9 insect cells, secreted, purified (ion exchange, Ni-NTA, gel filtration with or without HRV 3C treatment)
T1 sequence (looked up): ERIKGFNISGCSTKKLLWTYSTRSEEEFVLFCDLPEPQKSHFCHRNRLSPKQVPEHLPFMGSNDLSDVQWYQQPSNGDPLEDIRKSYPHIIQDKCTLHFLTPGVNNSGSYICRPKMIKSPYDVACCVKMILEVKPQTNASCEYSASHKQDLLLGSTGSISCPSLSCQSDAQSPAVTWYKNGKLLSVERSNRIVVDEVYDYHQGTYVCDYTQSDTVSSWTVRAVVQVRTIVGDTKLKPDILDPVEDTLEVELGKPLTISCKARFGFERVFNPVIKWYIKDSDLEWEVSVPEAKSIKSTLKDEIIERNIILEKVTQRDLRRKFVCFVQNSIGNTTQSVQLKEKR
Description: crystal structure; IL-18/IL-18Rα/IL-18Rβ ternary complex, 3.10 Å, one copy in the asymmetric unit, data at 100 K (PDB 3WO4). Particulars: both partners purified.

The target of test [3] is T2, preformed binary complex of IL-18 wild type and un-tagged IL-18Rα wild type extracellular domain (human, UniProt Q14116 37-193; Q13478 20-329).
T2 construct: interleukin-18, human, mature IL-18 (residues 1-157); numbers count on: the mature protein; IL-18 receptor alpha, human, extracellular domains, residues 20-329 of NM_003855; also called IL-18 WT/IL-18Rα WT complex; IL-18/IL-18Rα; source: IL-18: E. coli BL21(DE3), purified; IL-18Rα: silkworm larvae haemolymph, purified; un-tagged IL-18Rα saturated with 500 nM IL-18
Description: SPR; BIAcore 3000, 25 °C; C-terminal 6xHis IL-18Rβ (wild type or mutant) immobilised at about 100 RU on a Ni-NTA sensor chip; un-tagged IL-18Rα saturated with 500 nM IL-18 (preformed binary complex) injected as analyte in HBS-P; triplicate. Particulars: both partners purified.

The target of test [4] is T3, preformed binary complex of IL-18 wild type and un-tagged IL-18Rα N236Q extracellular domain (human, UniProt Q14116 37-193; Q13478 20-329, N236Q).
T3 construct: interleukin-18, human, mature IL-18 (residues 1-157); numbers count on: the mature protein; IL-18 receptor alpha, human, extracellular domains, residues 20-329 of NM_003855; lacks the N-linked sugar chain on N236; also called IL-18WT/IL-18Rα mutant complex; IL18/IL18Rα-N236Q; source: IL-18: E. coli BL21(DE3), purified; IL-18Rα: silkworm larvae haemolymph, purified; un-tagged IL-18Rα saturated …
The description is as above. Particulars: both partners purified.

Test [5] concerns the target T4, IL-18 WT/IL-18Rα WT complex (SPR analyte) (human, UniProt Q14116 37-193; Q13478 20-329).
T4 construct: human interleukin-18, mature IL-18 (residues 1-157); numbers count on: the mature protein; human IL-18 receptor α, extracellular domains, residues 20-329 of NM_003855, printed as un-tagged; also called IL-18/IL-18Rα binary complex; IL-18 WT(control); source: IL-18: E. coli BL21(DE3), purified; IL-18Rα: silkworm larvae haemolymph, purified; un-tagged IL-18Rα saturated with 500 nM IL-18
Description: SPR; BIAcore 3000, 25 °C, C-terminal 6xHis IL-18Rβ immobilised (~100 RU) on an NTA sensor chip, un-tagged IL-18Rα saturated with 500 nM IL-18 as analyte in HBS-P. Particulars: both partners purified.

In test [6] the target is T5, IL-18WT/IL-18Rα N236Q complex (SPR analyte) (human, UniProt Q14116 37-193; Q13478 20-329, N236Q).
T5 construct: human interleukin-18, mature IL-18 (residues 1-157); numbers count on: the mature protein; human IL-18 receptor α, extracellular domains, residues 20-329 of NM_003855, used instead of the un-tagged wild type; The mutation removes the N-linked sugar chain at Asn236; also called N236Q^Rα; source: IL-18: E. coli BL21(DE3), purified; IL-18Rα mutant: silkworm larvae haemolymph, purified; IL-18Rα …
The test is described as above. Particulars: both partners purified.

In the case of “IL-18 D110A/IL-18Rα WT complex (SPR analyte) (from UniProt Q13478 20-329)”, in test [1], the Kd is 56 nM.
The same measure, in the same setting: as for “IL-18 G145A/IL-18Rα WT complex (SPR analyte) (from UniProt Q13478 20-329)”, the figure is 28 nM.
In turn, “IL-18 R147A/IL-18Rα WT complex (SPR analyte) (from UniProt Q13478 20-329)” had a Kd in test [1] of 57 nM.

B1: IL-18 receptor α extracellular domains (residues 20-329), construct for crystallography (domain or fragment, human, UniProt Q13478 20-329, looked up)
chain: ESCTSRPHITVVEGEPFYLKHCSCSLAHEIETTTKSWYKSSGSQEHVELNPRSSSRIALHDCVLEFWPVELNDTGSYFFQMKNYTQKWKLNVIRRNKHSCFTERQVTSKIVEVKKFFQITCENSYYQTLVNSTSLYKNCKKLLLENNKNPTIKKNAEFEDQGYYSCVHFLHHNGKLFNITKTFNITIVEDRSNIVPVLLGPKLNHVAVELGKNVRLNCSALLNEEDVIYWMFGEENGSDPNIHEEKEMRIMTPEGKWHASKVLRIENIGESNLNVLYNCTVASTGGTDTKSFILVRKADMADIPGHVFTR
modifications: N-linked glycosyl chains at Asn91, 102, 150, 197, 203, 236 and 297 (high-mannose glycans, Sf9)
notes: human IL-18 receptor α, extracellular domains, residues 20-329 of NM_003855; also called IL-18Rα; source: Sf9 insect cells, secreted, purified (ion exchange, Ni-NTA, gel filtration with or without HRV 3C treatment)
Regarding B1, the binding result in test [2] is given as “binds”.

B2: human IL-18 receptor beta extracellular domain (residues 15-356), C-terminal 6xHis, wild type, from silkworm (receptor, UniProt O95256-1 15-356, looked up)
chain: ERIKGFNISGCSTKKLLWTYSTRSEEEFVLFCDLPEPQKSHFCHRNRLSPKQVPEHLPFMGSNDLSDVQWYQQPSNGDPLEDIRKSYPHIIQDKCTLHFLTPGVNNSGSYICRPKMIKSPYDVACCVKMILEVKPQTNASCEYSASHKQDLLLGSTGSISCPSLSCQSDAQSPAVTWYKNGKLLSVERSNRIVVDEVYDYHQGTYVCDYTQSDTVSSWTVRAVVQVRTIVGDTKLKPDILDPVEDTLEVELGKPLTISCKARFGFERVFNPVIKWYIKDSDLEWEVSVPEAKSIKSTLKDEIIERNIILEKVTQRDLRRKFVCFVQNSIGNTTQSVQLKEKR
notes: IL-18 receptor beta, human, extracellular domains, residues 15-356 of NM_003853; also called IL-18Rβ; IL-18Rβ WT; source: silkworm (B. mori) larvae, BmNPV bacmid, haemolymph, purified (ion exchange, Ni-NTA, gel filtration); not shown: 6xHis, C-terminal, kept
As for B2, the kon in test [3] was 11000 M⁻¹ s⁻¹; in test [4], 12000 M⁻¹ s⁻¹.

B3: C-terminal 6xHis tagged IL-18Rβ extracellular domains (residues 15-356), for SPR (domain or fragment, human, UniProt O95256-1 15-356, looked up)
chain: ERIKGFNISGCSTKKLLWTYSTRSEEEFVLFCDLPEPQKSHFCHRNRLSPKQVPEHLPFMGSNDLSDVQWYQQPSNGDPLEDIRKSYPHIIQDKCTLHFLTPGVNNSGSYICRPKMIKSPYDVACCVKMILEVKPQTNASCEYSASHKQDLLLGSTGSISCPSLSCQSDAQSPAVTWYKNGKLLSVERSNRIVVDEVYDYHQGTYVCDYTQSDTVSSWTVRAVVQVRTIVGDTKLKPDILDPVEDTLEVELGKPLTISCKARFGFERVFNPVIKWYIKDSDLEWEVSVPEAKSIKSTLKDEIIERNIILEKVTQRDLRRKFVCFVQNSIGNTTQSVQLKEKR
notes: human IL-18 receptor β, extracellular domains, residues 15-356 of NM_003853; also called IL-18Rβ WT; IL-18Rβ WT (control); source: silkworm (B. mori) larvae, BmNPV bacmid, haemolymph, purified as from Sf9; not shown: 6xHis, C-terminal, kept
As for B3, the Kd came to 15 nM in test [5] and 17 nM in test [6].

B4: IL-18Rβ Y214A, C-terminal 6xHis tagged extracellular domains (residues 15-356), for SPR (domain or fragment, human, UniProt O95256-1 15-356, looked up)
chain: ERIKGFNISGCSTKKLLWTYSTRSEEEFVLFCDLPEPQKSHFCHRNRLSPKQVPEHLPFMGSNDLSDVQWYQQPSNGDPLEDIRKSYPHIIQDKCTLHFLTPGVNNSGSYICRPKMIKSPYDVACCVKMILEVKPQTNASCEYSASHKQDLLLGSTGSISCPSLSCQSDAQSPAVTWYKNGKLLSVERSNRIVVDEVYDAHQGTYVCDYTQSDTVSSWTVRAVVQVRTIVGDTKLKPDILDPVEDTLEVELGKPLTISCKARFGFERVFNPVIKWYIKDSDLEWEVSVPEAKSIKSTLKDEIIERNIILEKVTQRDLRRKFVCFVQNSIGNTTQSVQLKEKR
notes: human IL-18 receptor β, extracellular domains, residues 15-356 of NM_003853; source: silkworm (B. mori) larvae, BmNPV bacmid, haemolymph, purified as from Sf9; not shown: 6xHis, C-terminal, kept
As to B4, in test [5], binding was characterised by a dissociation constant (Kd) of 50 nM.

By Kd is commonly meant the constant that tells how readily two partners part at equilibrium. The low end stands for higher affinity, the high end for lower affinity. Broadly, the kon is a measure of how fast the partners come together. A higher kon goes with fast association.

(Values after paper PMC4275594 (Nature Communications, 2014).)
